# The supplement of paper PMC9170038
# System: MS2 coat protein
# Test: apparent KD of MS2 coat protein; higher = weaker reporter binding
# Details: Eterna round: R107; input ligand: theophylline 20 uM
# Summary of the method: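 Normalised binding curves from single clusters were fitted, and the median fit for each design is given as apparent KD. The clusters held designed RNA switches transcribed on-chip from Illumina sequencing clusters. These were titrated with SNAP-549-labelled MS2 coat protein (twofold steps from 0.7 or 1.5 nM to 3 µM, 0.8–1.5 h to 10–20 min per step) in 100 mM Tris-HCl pH 7.5, 80 mM KCl, 4 mM MgCl2, without or with constant ligand.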
row,Sequence,apparent KD of MS2 coat protein
1,GGGUGGUAGGCGGCCGCCACUGAUUUUCAUUUAUAGAUGACAUGAGGAUCACCCAUGUUUAUGUGCAGGACCGGGCCUGCUGUGG [aaaT],130 nM
2,GGAUGCGGCACGGCCGCCACUGCGGUGGUGUGACAUGAGGAUCACCCAUGUUGUCAUGCGGCCCUUAGGACCGGGUGGCGUGUCC [#1 Exclusion - Tryptophan B Attempt #19 (HarryS)],57.4 nM
3,UAUUAUCAGUCGGCCGCCACUGACACAUGAGGAUCACCCAUGUAAUUUGGGUUAUAUAGAAAAUACAGGACCGGGACUAAGGCUA [JR_ExcTryptoB_Sub014],324 nM
4,UGUAUGGACUGAAGGAGCGCCUCAAAAUAACAUGAGGAUCACCCAUGUAAGGCGAAAGCCGGGCAGGUAGGUCGCAGUCCAUACU [ArgBX 3 #StaticStem #MS2Late],16.1 nM
5,AUGCAACAUGAGGAUCACCCAUGUGGUGAUACCAGUCGACAAGUAGACCCUUGGCAGCACAGCCGAUAUCGAGAGAGAUUUUUGG [theeternabot_sameState_MS2_Theo_A_23],476 nM
6,GUAAGACAUGAGGAUCACCCAUGUGUCGAUACCAGCCCUGCCUCUGGCCCUUGGCAGCGACUCGCACACCUCGCACUGCACAAGU [theeternabot_sameState_MS2_Theo_A_13],59.5 nM
7,CGAGUGCUGUCGGCCGCCACUGCACAUGAGGAUCACCCAUGUAAAAGCUGGCUGUGACUGGUGUUCAGGACCGGGACAGGGUCUU [Inriedzaan],13.8 nM
8,GAUGAACUAUUUGAUACCAGACUACAUGAGGAUCACCCAUGUGAGUUUAUACUUCUGUCAGUCCCUUGGCAGCAAAUAGUUUAUC [XTheo B #5],27.8 nM
9,GUCUUGGGAUCGGCCGCCACUACAUGAGGAUCACCCAUGUGGACAAAUAGGGUUUUUAAGCUCGGUAGGACCGGGAUUCGGACAU [Marasosoge],16.7 nM
10,UGUAUGGACUGAAGGAGCGGGUAAUAAAUCUGAGGAUCACCCAGGUAAUAGGCGAAAGCCGCCCAGGUAGGUCGCAGUCCAUACU,27.5 nM
11,AGGACAUCGGGAAGGAGCGCAUCCAAACCACACAUGAGGAUCACCCAUGUAUAAAUAUGCAUGCAGGUAGGUCGCCCGGUGUCUC [Veaza],140 nM
12,AUACCUAAUGUUACAUUUUCCUUUUCAGAUACCAGACUUUACGUUGUCCCUUGGCAGCUGUAUCACAUGAGGAUCACCCAUGUUG [JR_SSTheophyA_Sub009],20.7 nM
13,GCACAAGAUGGAAGGAGCGCUGGAAAAGGUCACAUGAGGAUCACCCAUGUUCUCCUAACCGAGCAGGUAGGUCGCCAUCUUGUGC [SSAB NP+V+V2 #1],25.6 nM
14,AUAACAUGAGGAUCACCCAUGUAAGCUGAAGGAGCGGACGAAAGUCCAGGUAGGUCGCAGCGCUCCUUCUGGUGAUCUGAAGGAG [(M1)-(M2)-(Arg1)-(Arg2)-(A)'-(M)'-(A)''_Design3],154 nM
15,CAUCCUAGUACAUGAGGAUCACCCAUGUAUCGAGGACCGGUACGGCCGCCACUCGAAUGGCGGAUCGUUGAUCCUUUAGGAUGAA [Tryp A Ex t4],20.7 nM

# Same assay, conditions: Eterna round: R107; input ligand: theophylline 2 mM
row,Sequence,apparent KD of MS2 coat protein
1,CGAGCUGACGGAAGGAGCGAAGCCUACUCGGUGUUCCCACAUGAGGAUCACCCAUGUGGGCUUCAGGUAGGUCGCCGAACAGUCG [Vecequlala],86.9 nM
2,UAUCGUCAGACGGCCGCCACUAGAACAUGAGGAUCACCCAUGUACGGCCGCUCGGUCCUCAUGACUAGGACCGGGUCUGACGAAU [(Trp1)-(Ms2)-(T)'-(M)'-(Trp2)_Design22],12 nM
3,AAGACAUGAGGAUCACCCAUGUCGUCAACACGAGGACCGGUACGGCCGCCACUCGCAUGCCAAUGAGCGCAUGCGGCCUGGGUAU [Exclusion Tryp A GF4],13.8 nM
4,AGCAUCUAGUCGGCCGCCACUCUUAUUACAUGAGGAUCACCCAUGUUUAAUUCAUGGUUAUAUUUGAGGACCGGGACAUUUGCAU [JR_ExcTryptoB_Sub007],74.9 nM
5,AUUCAUAACUGAAGGAGCGUGAUAUAAAUUUUUACAUGAGGAUCACCCAUGUUUCAUCGAUCACAGGUAGGUCGCAGAUUCUCAU [JR_SSArginiB_Sub012],45.1 nM
6,AAGACGGUCGGAAGGAGCGGUACAUGAGGAUCACCCAUGUAUUCCUGGGCAUCCGUAGUGUGCCAGGUAGGUCGCCGAUUGCGGG [XArg-B13],97.2 nM
7,GCACAUGAGGAUCACCCAUGUAUUACUGAAGGAGCGAGACAGAACUCAGGUAGGUCGCAGACGGCGGAAUCGCCGACGACAUGGG [Exclusion Arginine A GF23],40.7 nM
8,ACAUUGCGCACGGCCGCCACUGGCUAUAGAUUUAUAGCAUUAAUGAACAUGAGGAUCACCCAUGUCAGGACCGGGUGCGAACCAU [SSTryp B #9],27.6 nM
9,GAGCACAUGAGGAUCACCCAUGUUGGCACACGAGGACCGGUACGGCCGCCACUCGCGGCGGGAAUAACUUUGCGCAGAUGAUGGG [theeternabot_sameState_MS2_Trp_A_50],23.7 nM
10,GUCGGUACGUCGGCAAAGCCGAUGUGCCAGCGAGGACCGGUACGGCCGCCACUCGUACAUGAGGAUCACCCAUGUCCGGUCCGAC [Omei Trp SS A C v4],169 nM
11,GGGUGGUAGGCGGCCGCCACUGAUUUUCAUUUAUAGAUGACAUGAGGAUCACCCAUGUUUAUGUGCAGGACCGGGCCUGCUGUGG [aaaT],137 nM
12,GGAUGCGGCACGGCCGCCACUGCGGUGGUGUGACAUGAGGAUCACCCAUGUUGUCAUGCGGCCCUUAGGACCGGGUGGCGUGUCC [#1 Exclusion - Tryptophan B Attempt #19 (HarryS)],56.3 nM
13,UAUUAUCAGUCGGCCGCCACUGACACAUGAGGAUCACCCAUGUAAUUUGGGUUAUAUAGAAAAUACAGGACCGGGACUAAGGCUA [JR_ExcTryptoB_Sub014],326 nM
14,UGUAUGGACUGAAGGAGCGCCUCAAAAUAACAUGAGGAUCACCCAUGUAAGGCGAAAGCCGGGCAGGUAGGUCGCAGUCCAUACU [ArgBX 3 #StaticStem #MS2Late],17 nM
15,CGAGUGCUGUCGGCCGCCACUGCACAUGAGGAUCACCCAUGUAAAAGCUGGCUGUGACUGGUGUUCAGGACCGGGACAGGGUCUU [Inriedzaan],11.7 nM
16,GUCUUGGGAUCGGCCGCCACUACAUGAGGAUCACCCAUGUGGACAAAUAGGGUUUUUAAGCUCGGUAGGACCGGGAUUCGGACAU [Marasosoge],16.3 nM
17,UGUAUGGACUGAAGGAGCGGGUAAUAAAUCUGAGGAUCACCCAGGUAAUAGGCGAAAGCCGCCCAGGUAGGUCGCAGUCCAUACU,18.8 nM
18,AGGACAUCGGGAAGGAGCGCAUCCAAACCACACAUGAGGAUCACCCAUGUAUAAAUAUGCAUGCAGGUAGGUCGCCCGGUGUCUC [Veaza],137 nM
19,GCACAAGAUGGAAGGAGCGCUGGAAAAGGUCACAUGAGGAUCACCCAUGUUCUCCUAACCGAGCAGGUAGGUCGCCAUCUUGUGC [SSAB NP+V+V2 #1],29.8 nM
20,AUAACAUGAGGAUCACCCAUGUAAGCUGAAGGAGCGGACGAAAGUCCAGGUAGGUCGCAGCGCUCCUUCUGGUGAUCUGAAGGAG [(M1)-(M2)-(Arg1)-(Arg2)-(A)'-(M)'-(A)''_Design3],87.8 nM
21,CAUCCUAGUACAUGAGGAUCACCCAUGUAUCGAGGACCGGUACGGCCGCCACUCGAAUGGCGGAUCGUUGAUCCUUUAGGAUGAA [Tryp A Ex t4],20.9 nM

# Same assay, conditions: Eterna round: R107; input ligand: tryptophan 2.4 mM
row,Sequence,apparent KD of MS2 coat protein
1,AAACGUUGCUCAGAUACCAGACAUGAGGAUCACCCAUGUACCGAGGUACCCGAAAGGAAUGUCCCUUGGCAGCUGAGCAACGAAA [MAT - Exclusion Theophlline B - Mod of Eli - D23],10.2 nM
2,CGAGCUGACGGAAGGAGCGAAGCCUACUCGGUGUUCCCACAUGAGGAUCACCCAUGUGGGCUUCAGGUAGGUCGCCGAACAGUCG [Vecequlala],32.4 nM
3,UAUCGUCAGACGGCCGCCACUAGAACAUGAGGAUCACCCAUGUACGGCCGCUCGGUCCUCAUGACUAGGACCGGGUCUGACGAAU [(Trp1)-(Ms2)-(T)'-(M)'-(Trp2)_Design22],9.96 nM
4,AAGACAUGAGGAUCACCCAUGUCGUCAACACGAGGACCGGUACGGCCGCCACUCGCAUGCCAAUGAGCGCAUGCGGCCUGGGUAU [Exclusion Tryp A GF4],34.3 nM
5,AUUCAUAACUGAAGGAGCGUGAUAUAAAUUUUUACAUGAGGAUCACCCAUGUUUCAUCGAUCACAGGUAGGUCGCAGAUUCUCAU [JR_SSArginiB_Sub012],37.9 nM
6,UCACGAGGCCUGGAUACCAGCGACAUGAGGAUCACCCAUGUAUGAGGAUCAGCCAUGUUAUGCCCUUGGCAGCCACGAAGGUCAU [XZZMULLIN],15.8 nM
7,AAGACGGUCGGAAGGAGCGGUACAUGAGGAUCACCCAUGUAUUCCUGGGCAUCCGUAGUGUGCCAGGUAGGUCGCCGAUUGCGGG [XArg-B13],40.9 nM
8,GCACAUGAGGAUCACCCAUGUAUUACUGAAGGAGCGAGACAGAACUCAGGUAGGUCGCAGACGGCGGAAUCGCCGACGACAUGGG [Exclusion Arginine A GF23],27.7 nM
9,GAGCACAUGAGGAUCACCCAUGUUGGCACACGAGGACCGGUACGGCCGCCACUCGCGGCGGGAAUAACUUUGCGCAGAUGAUGGG [theeternabot_sameState_MS2_Trp_A_50],21.4 nM
10,ACAUGUCUUAUAGAUACCAGACAGGACAUGAGGAUCACCCAUGUAAUGUAUACAUGCAGAGUCCCUUGGCAGCUAAGGUCAUAGA [#26 Same State - Theophylline B],92.8 nM
11,GUCGGUACGUCGGCAAAGCCGAUGUGCCAGCGAGGACCGGUACGGCCGCCACUCGUACAUGAGGAUCACCCAUGUCCGGUCCGAC [Omei Trp SS A C v4],155 nM
12,GAUCUGUCGGGUGAUACCAGCCUCGGCGCGUCUCGCGCUGAACAUGAGGAUCACCCAUGUGGCCCUUGGCAGCACAUGACAAAUC [Ditere],598 nM
13,GGGUGGUAGGCGGCCGCCACUGAUUUUCAUUUAUAGAUGACAUGAGGAUCACCCAUGUUUAUGUGCAGGACCGGGCCUGCUGUGG [aaaT],78.2 nM
14,UGUAUGGACUGAAGGAGCGCCUCAAAAUAACAUGAGGAUCACCCAUGUAAGGCGAAAGCCGGGCAGGUAGGUCGCAGUCCAUACU [ArgBX 3 #StaticStem #MS2Late],12.7 nM
15,AUGCAACAUGAGGAUCACCCAUGUGGUGAUACCAGUCGACAAGUAGACCCUUGGCAGCACAGCCGAUAUCGAGAGAGAUUUUUGG [theeternabot_sameState_MS2_Theo_A_23],824 nM
16,GUAAGACAUGAGGAUCACCCAUGUGUCGAUACCAGCCCUGCCUCUGGCCCUUGGCAGCGACUCGCACACCUCGCACUGCACAAGU [theeternabot_sameState_MS2_Theo_A_13],49 nM
17,GAUGAACUAUUUGAUACCAGACUACAUGAGGAUCACCCAUGUGAGUUUAUACUUCUGUCAGUCCCUUGGCAGCAAAUAGUUUAUC [XTheo B #5],16.4 nM
18,UGUAUGGACUGAAGGAGCGGGUAAUAAAUCUGAGGAUCACCCAGGUAAUAGGCGAAAGCCGCCCAGGUAGGUCGCAGUCCAUACU,23.1 nM
19,AGGACAUCGGGAAGGAGCGCAUCCAAACCACACAUGAGGAUCACCCAUGUAUAAAUAUGCAUGCAGGUAGGUCGCCCGGUGUCUC [Veaza],108 nM
20,AUACCUAAUGUUACAUUUUCCUUUUCAGAUACCAGACUUUACGUUGUCCCUUGGCAGCUGUAUCACAUGAGGAUCACCCAUGUUG [JR_SSTheophyA_Sub009],17 nM
21,GCACAAGAUGGAAGGAGCGCUGGAAAAGGUCACAUGAGGAUCACCCAUGUUCUCCUAACCGAGCAGGUAGGUCGCCAUCUUGUGC [SSAB NP+V+V2 #1],25.9 nM
22,AUAACAUGAGGAUCACCCAUGUAAGCUGAAGGAGCGGACGAAAGUCCAGGUAGGUCGCAGCGCUCCUUCUGGUGAUCUGAAGGAG [(M1)-(M2)-(Arg1)-(Arg2)-(A)'-(M)'-(A)''_Design3],138 nM
23,CAUCCUAGUACAUGAGGAUCACCCAUGUAUCGAGGACCGGUACGGCCGCCACUCGAAUGGCGGAUCGUUGAUCCUUUAGGAUGAA [Tryp A Ex t4],19.2 nM
